Among the data in the RNAGym collection of RNA variant scans (doi:10.7554/elife.90254) are self-cleavage values, retold here.

B1: LINE1-full (parent)
chain: UACGUAGGUGGUUUUCCCCUGAUAGUGCUAAGGGGGCCUGGAAGUUUGGACUGGGCAGAGCUCAACACAGCGUGGCAAAGUGGCUGUGGCUAGACUGCCUCUCUGGAUUCCUCGUCACUCAGCAGGGCAUCUCUGAGAGAAAUGCC

The series covers variants of B1. Description: self-cleavage, relative activity (ratio to wild type); higher = more cleavage; in vitro, sequencing; the parent is a self-cleaving ribozyme.
As to C37A G88U, the self-cleavage is 0.

C37G A129G: the self-cleavage was 0.9.

Turning to U39A C116A, the self-cleavage was determined as 1.38. Consider C38U U100C, for which the self-cleavage was 1.9. Under C38U G74A stands 1.27; under C38U A142G, 1.4. Take C38U A142U: the self-cleavage came out at 0.32. C38A A50G: the self-cleavage is 0.51.

Take U39A U52A: the self-cleavage is 1.4. Consider C37G A121G, for which the self-cleavage was 1.23. On to C38A G44U, for which the self-cleavage came out at 1.48.

U39A A43G: the self-cleavage was 0.63. Consider U39A A43C, for which the self-cleavage came to 0.66. The same measure for C37U G54U: 0.41. Take C37A A65G: the self-cleavage was determined as 0.01.

As for G36U U62C, the self-cleavage was found to be 0.02. The same measure for C37U U132C: 1.21; for U39A G88A: 0.08. Under C38U A141G stands 0.84. As for C38A G55C, the self-cleavage came out at 0.07. For the variant U39A A142G, the self-cleavage came out at 1.53.

For C38G A43G, the self-cleavage was 1.6. C38U U104C: the self-cleavage was 1.71.

Turning to C38U A138C, the self-cleavage is 1.46. With C38U C98G, the self-cleavage was found to be 0.12.

Turning to U39A C90A, the self-cleavage was determined as 0.03. On to U39A C90G, for which the self-cleavage was found to be 0.04.

For the variant C37G A117G, the self-cleavage is 1.66. Regarding U39A G135A, the self-cleavage came to 1.57. Turning to U39A G135U, the self-cleavage was determined as 1.99. On to C37U G53A, for which the self-cleavage was determined as 1.33. Regarding U39A U45C, the self-cleavage is 1.58. The same measure for U39A U45A: 1.54; for U39A A117U: 1.63; for U39A U81C: 1.39.

Take U39A G48A: the self-cleavage amounted to 1.22.

As to U39A G54A, the self-cleavage is 0.66. Regarding C38A A124G, the self-cleavage worked out at 0.68.

As to C37U U119A, the self-cleavage is 0.99.

In the case of C38U U134A, the self-cleavage worked out at 1.23. Consider C37G A57G, for which the self-cleavage is 0.73. The same measure for C37G A57U: 0.1; for C38U U87C: 0.06; for U39A A136G: 1.49. Consider U39A A136U, for which the self-cleavage was determined as 1.52. Take C37G A141G: the self-cleavage came to 1.66.

C37U U62C: the self-cleavage was 0.04. As for C37U G86A, the self-cleavage stood at 0.1.

Turning to C37A U45C, the self-cleavage is 1.01. The same measure for C37U U104A: 0.59; for C37U U104C: 1.28; for C38U A78G: 1.28. Regarding U39A U102C, the self-cleavage came to 1.72.

Turning to C38U A107G, the self-cleavage was determined as 1.63. Take C38U U47G: the self-cleavage stood at 0.78. As for C37G U132C, the self-cleavage was found to be 0.94. For the variant C37G U132A, the self-cleavage is 1.23. As to C38A, the self-cleavage was 1.28. Under C38U stands 1.33; under C38U A64U, 0.35; under C38U A64G, 0.17. With C37U C68A, the self-cleavage amounted to 0.03. The same measure for C37G A92G: 0.04; for U39A C71U: 0.97.

On to C37G A124G, for which the self-cleavage stood at 1.61. Turning to U39A U73C, the self-cleavage came to 1.38. Under U39A U73A stands 1.76; under C38U C61G, 0.02. For U39A U85G, the self-cleavage was 0.28.

Turning to U39A U85C, the self-cleavage was 0.19.

U39A U85A: the self-cleavage was 0.11. With C38U A57U, the self-cleavage was 0.15. In the case of C37U U134C, the self-cleavage amounted to 1.25. Under C38A A142G stands 0.64.

In the case of U39A G97A, the self-cleavage came out at 0.12.

Regarding U39A A140G, the self-cleavage came to 1.36. For C38U A92G, the self-cleavage came out at 0.05. C38U U85C: the self-cleavage worked out at 0.15.

Consider C37A U87G, for which the self-cleavage was determined as 0.12. For U39A C98U, the self-cleavage came to 0.45. As for C38U A121G, the self-cleavage is 1.72. As for U39A C66U, the self-cleavage worked out at 0.05. For C38U A94G, the self-cleavage was determined as 0.29. As for U39A G49A, the self-cleavage came to 1.06. C38U U46C: the self-cleavage came to 1.51. U39A U62A: the self-cleavage was found to be 0.02. Regarding U39A U62G, the self-cleavage came out at 0.04. The same measure for U39A U62C: 0.05. As for C37U U47A, the self-cleavage is 1.41.

On to C37U A59G, for which the self-cleavage is 0.07.

Take C37U G40A: the self-cleavage was 0.68. With C38G U39G, the self-cleavage stood at 1.28. Consider C37U U85A, for which the self-cleavage was found to be 0.05.

Consider U39A C128G, for which the self-cleavage came to 1.62. Turning to C38U U119C, the self-cleavage is 1.47.

Turning to C38U U119A, the self-cleavage is 1.24. As for C38A A43G, the self-cleavage was determined as 0.59. Turning to U39A C111A, the self-cleavage came out at 1.55. The same measure for C37A A136G: 1.04; for C37U A129U: 0.45; for C38A U109A: 1.36. Under C37U A67G stands 0.22. Consider C37U A124G, for which the self-cleavage was 0.59. Take C37U A124U: the self-cleavage was 1.12. Under C38U A129U stands 0.31. Under C38U U112C stands 1.35; under C38A U108A, 1.01. As to C37U U143C, the self-cleavage amounted to 0.84. Turning to C37U U108A, the self-cleavage was determined as 1.01.

Consider U39A A64U, for which the self-cleavage amounted to 0.47.

Take U39A A64G: the self-cleavage was 0.21.

As for C37G U45C, the self-cleavage came to 1.6. With C38U A136G, the self-cleavage stood at 1.89. For G36U U104C, the self-cleavage amounted to 2.32. Consider C37G U134C, for which the self-cleavage was determined as 0.66.

For C38A A64G, the self-cleavage was found to be 0.18. For C37U A57U, the self-cleavage was 0.05.

Regarding U39A G86A, the self-cleavage came out at 0.08. The same measure for U39A A42U: 1.35. For the variant U39A A42G, the self-cleavage amounted to 1.21. Turning to C38U G144A, the self-cleavage came to 1.36. As for U39A C133U, the self-cleavage was 1.41. For the variant C37U U102A, the self-cleavage came to 1.19. Regarding U39A U87A, the self-cleavage worked out at 0.07.

Regarding G36U U96C, the self-cleavage was 0.07. C38U U52A: the self-cleavage worked out at 1.25. As to C38U U52C, the self-cleavage came to 1.44. The same measure for C38A A129G: 1.46; for C38U U73C: 1.76; for U39A A50G: 1.29. On to C37G A43G, for which the self-cleavage worked out at 1.36. Under C38U A140G stands 1.24; under U39A U47C, 1.55; under C37A G58A, 0.03. In the case of U39A A121U, the self-cleavage is 1.58. Consider U39A A121G, for which the self-cleavage worked out at 1.69. In the case of C37A G40U, the self-cleavage stood at 1.04. Consider C37G A77U, for which the self-cleavage amounted to 1.06. For C37U C123U, the self-cleavage was 1.67. For C38U A79G, the self-cleavage was found to be 1.29.

For the variant C37G U115C, the self-cleavage was determined as 1.44. As for C37A U91C, the self-cleavage came to 0.41. For C38U C101U, the self-cleavage came to 1.82. On to C38A U39C, for which the self-cleavage worked out at 1.77. Under C37A U39C stands 1.35; under C38U C84G, 0.09; under U39A G93A, 0.04. As to U39A A124U, the self-cleavage came out at 1.61. For U39A A77U, the self-cleavage stood at 1.38. The same measure for C37G U91C: 0.32; for C38A A140U: 1.1; for C37U G55A: 0.12. Turning to C37U U100C, the self-cleavage worked out at 1.66. On to U39A G80A, for which the self-cleavage turned out to be 2.24.

As to U39A A141G, the self-cleavage amounted to 1.55.

Consider U39A A141U, for which the self-cleavage came out at 1.45. As for C38A U96G, the self-cleavage is 0.1. As to C37U A79G, the self-cleavage came out at 1.1. For C37U C128A, the self-cleavage was found to be 1.23. Under C37U A78G stands 0.96. For U39A G53A, the self-cleavage stood at 1.33. On to C38U A67G, for which the self-cleavage turned out to be 0.42. Take C38U A67U: the self-cleavage came to 0.07.

Take U39A G70U: the self-cleavage was 0.05. As for C38A G97A, the self-cleavage was found to be 0.05.

Take U39A U91A: the self-cleavage was determined as 0.56. U39A A79G: the self-cleavage was determined as 1.35.
